# Assay results: patent EP4772193A1 (Teijin Pharma Limited, dated 2026)
# Where two headings read alike, the source gives them in different places.
# T1: recombinant human soluble gpNMB (recombinant human gpNMB-FLAG-His) (human, UniProt Q14956 23-498)
# T1 sequence: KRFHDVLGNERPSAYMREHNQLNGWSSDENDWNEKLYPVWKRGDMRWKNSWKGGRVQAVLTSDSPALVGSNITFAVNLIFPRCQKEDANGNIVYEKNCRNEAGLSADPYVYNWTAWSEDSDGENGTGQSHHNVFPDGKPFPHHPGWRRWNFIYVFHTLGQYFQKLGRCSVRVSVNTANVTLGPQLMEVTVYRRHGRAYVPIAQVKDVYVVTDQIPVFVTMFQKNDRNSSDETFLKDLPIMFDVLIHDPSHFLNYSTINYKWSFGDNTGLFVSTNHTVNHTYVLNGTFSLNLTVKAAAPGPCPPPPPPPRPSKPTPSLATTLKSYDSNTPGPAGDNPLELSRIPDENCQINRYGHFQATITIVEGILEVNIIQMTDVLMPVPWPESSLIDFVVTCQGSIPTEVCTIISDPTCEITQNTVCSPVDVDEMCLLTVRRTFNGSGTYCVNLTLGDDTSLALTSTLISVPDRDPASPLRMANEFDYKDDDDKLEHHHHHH
# Legend:
# [1] = target: T1, recombinant human soluble gpNMB …; assay: antigen ELISA, vs hGPN18-2_H2L3
# [2] = target: T1, recombinant human soluble gpNMB …; assay: antigen ELISA
# [3] = target: T1, recombinant human soluble gpNMB …; assay: antigen ELISA, vs hGPN06-1_H1L1
# [4] = target: T1, recombinant human soluble gpNMB …; assay: antigen ELISA; remark: listed apart in the source
Binder,Relative binding activity [1],EC50 [2],Relative binding activity [3],EC50 [4]
"hGPN18-2_H2L3 VH D52A (antibody, V domains shown) VH: QVQLVQSGPGLVQPTQTLTLTCSFSGFSLSTSVMGVGWIRQPSGKGLEWLAAIWWDDDKDYNPSLKSRLTISKDTSKNQVVLTMTNMDTVDTATYYCARTYYSNYEYYGMDYWGQGTLVTVSS VL: DIVMTQSPDSLAVSLGERATINCRSSQTIILSNGNTYLEWYQQKPGQPPKLLIYKVSNRFSGVPDRFSGSGSGTDFTLTISSLQAEDVAVYYCFQGSHVPFTFGSGTKLEIKR",0.05,100 nM,–,–
"hGPN18-2_H2L3 VH D57A (antibody, V domains shown) VH: QVQLVQSGPGLVQPTQTLTLTCSFSGFSLSTSVMGVGWIRQPSGKGLEWLADIWWDADKDYNPSLKSRLTISKDTSKNQVVLTMTNMDTVDTATYYCARTYYSNYEYYGMDYWGQGTLVTVSS VL: DIVMTQSPDSLAVSLGERATINCRSSQTIILSNGNTYLEWYQQKPGQPPKLLIYKVSNRFSGVPDRFSGSGSGTDFTLTISSLQAEDVAVYYCFQGSHVPFTFGSGTKLEIKR",0.86,5.61 nM,–,–
"hGPN18-2_H2L3 VH G35A (antibody, V domains shown) VH: QVQLVQSGPGLVQPTQTLTLTCSFSGFSLSTSVMAVGWIRQPSGKGLEWLADIWWDDDKDYNPSLKSRLTISKDTSKNQVVLTMTNMDTVDTATYYCARTYYSNYEYYGMDYWGQGTLVTVSS VL: DIVMTQSPDSLAVSLGERATINCRSSQTIILSNGNTYLEWYQQKPGQPPKLLIYKVSNRFSGVPDRFSGSGSGTDFTLTISSLQAEDVAVYYCFQGSHVPFTFGSGTKLEIKR",0.68,5.16 nM,–,–
"hGPN18-2_H2L3 VH F27A (antibody, V domains shown) VH: QVQLVQSGPGLVQPTQTLTLTCSFSGASLSTSVMGVGWIRQPSGKGLEWLADIWWDDDKDYNPSLKSRLTISKDTSKNQVVLTMTNMDTVDTATYYCARTYYSNYEYYGMDYWGQGTLVTVSS VL: DIVMTQSPDSLAVSLGERATINCRSSQTIILSNGNTYLEWYQQKPGQPPKLLIYKVSNRFSGVPDRFSGSGSGTDFTLTISSLQAEDVAVYYCFQGSHVPFTFGSGTKLEIKR",0.69,5.47 nM,–,–
"hGPN18-2_H2L3 VH I53A (antibody, V domains shown) VH: QVQLVQSGPGLVQPTQTLTLTCSFSGFSLSTSVMGVGWIRQPSGKGLEWLADAWWDDDKDYNPSLKSRLTISKDTSKNQVVLTMTNMDTVDTATYYCARTYYSNYEYYGMDYWGQGTLVTVSS VL: DIVMTQSPDSLAVSLGERATINCRSSQTIILSNGNTYLEWYQQKPGQPPKLLIYKVSNRFSGVPDRFSGSGSGTDFTLTISSLQAEDVAVYYCFQGSHVPFTFGSGTKLEIKR",0.6,6.94 nM,–,–
"hGPN18-2_H2L3 VH D58A (antibody, V domains shown) VH: QVQLVQSGPGLVQPTQTLTLTCSFSGFSLSTSVMGVGWIRQPSGKGLEWLADIWWDDAKDYNPSLKSRLTISKDTSKNQVVLTMTNMDTVDTATYYCARTYYSNYEYYGMDYWGQGTLVTVSS VL: DIVMTQSPDSLAVSLGERATINCRSSQTIILSNGNTYLEWYQQKPGQPPKLLIYKVSNRFSGVPDRFSGSGSGTDFTLTISSLQAEDVAVYYCFQGSHVPFTFGSGTKLEIKR",0.5,10.2 nM,–,–
"hGPN18-2_H2L3 VH D56A (antibody, V domains shown) VH: QVQLVQSGPGLVQPTQTLTLTCSFSGFSLSTSVMGVGWIRQPSGKGLEWLADIWWADDKDYNPSLKSRLTISKDTSKNQVVLTMTNMDTVDTATYYCARTYYSNYEYYGMDYWGQGTLVTVSS VL: DIVMTQSPDSLAVSLGERATINCRSSQTIILSNGNTYLEWYQQKPGQPPKLLIYKVSNRFSGVPDRFSGSGSGTDFTLTISSLQAEDVAVYYCFQGSHVPFTFGSGTKLEIKR",0.63,8.98 nM,–,–
"hGPN06-1_H1L1 VL S92A (antibody, V domains shown) VH: QVQLVQSGAEVKKPGASVKVSCKASGYTFTDNWMGWVKQRPGQGLEWIGAIDPSDSFTNYNQNFKGRVTMTVDTSISTAYMELSRLRSDDSAVYFCTRSGYYGSPKLGGDYWGQGTLVTVSS VL: EIVLTQSPSSLSASVGDRVTITCSASSSISYMHWYQQKSGTAPKLLIYSTSNLASGVPSRFSGSGSGTDFTFTISSLQPEDAATYYCHQWNAYPCTFGGGTKLEIK",–,–,0.19,1.86 nM
"hGPN06-1_H1L1 VL T96A (antibody, V domains shown) VH: QVQLVQSGAEVKKPGASVKVSCKASGYTFTDNWMGWVKQRPGQGLEWIGAIDPSDSFTNYNQNFKGRVTMTVDTSISTAYMELSRLRSDDSAVYFCTRSGYYGSPKLGGDYWGQGTLVTVSS VL: EIVLTQSPSSLSASVGDRVTITCSASSSISYMHWYQQKSGTAPKLLIYSTSNLASGVPSRFSGSGSGTDFTFTISSLQPEDAATYYCHQWNSYPCAFGGGTKLEIK",–,–,0.83,1.03 nM
"hGPN06-1_H1L1 VL T50A (antibody, V domains shown) VH: QVQLVQSGAEVKKPGASVKVSCKASGYTFTDNWMGWVKQRPGQGLEWIGAIDPSDSFTNYNQNFKGRVTMTVDTSISTAYMELSRLRSDDSAVYFCTRSGYYGSPKLGGDYWGQGTLVTVSS VL: EIVLTQSPSSLSASVGDRVTITCSASSSISYMHWYQQKSGTAPKLLIYSASNLASGVPSRFSGSGSGTDFTFTISSLQPEDAATYYCHQWNSYPCTFGGGTKLEIK",–,–,0.3,3.19 nM
"hGPN06-1_H1L1 VL W90A (antibody, V domains shown) VH: QVQLVQSGAEVKKPGASVKVSCKASGYTFTDNWMGWVKQRPGQGLEWIGAIDPSDSFTNYNQNFKGRVTMTVDTSISTAYMELSRLRSDDSAVYFCTRSGYYGSPKLGGDYWGQGTLVTVSS VL: EIVLTQSPSSLSASVGDRVTITCSASSSISYMHWYQQKSGTAPKLLIYSTSNLASGVPSRFSGSGSGTDFTFTISSLQPEDAATYYCHQANSYPCTFGGGTKLEIK",–,–,0.13,122 nM

# The next lines start with the values.
Relative binding activity [1],EC50 [2],Relative binding activity [3],EC50 [4],Binder
0.98,3.13 nM,–,–,"hGPN18-2_H2L3 VH D60A (antibody, V domains shown) VH: QVQLVQSGPGLVQPTQTLTLTCSFSGFSLSTSVMGVGWIRQPSGKGLEWLADIWWDDDKAYNPSLKSRLTISKDTSKNQVVLTMTNMDTVDTATYYCARTYYSNYEYYGMDYWGQGTLVTVSS VL: DIVMTQSPDSLAVSLGERATINCRSSQTIILSNGNTYLEWYQQKPGQPPKLLIYKVSNRFSGVPDRFSGSGSGTDFTLTISSLQAEDVAVYYCFQGSHVPFTFGSGTKLEIKR"
0.88,3.22 nM,–,–,"hGPN18-2_H2L3 VH S28A (antibody, V domains shown) VH: QVQLVQSGPGLVQPTQTLTLTCSFSGFALSTSVMGVGWIRQPSGKGLEWLADIWWDDDKDYNPSLKSRLTISKDTSKNQVVLTMTNMDTVDTATYYCARTYYSNYEYYGMDYWGQGTLVTVSS VL: DIVMTQSPDSLAVSLGERATINCRSSQTIILSNGNTYLEWYQQKPGQPPKLLIYKVSNRFSGVPDRFSGSGSGTDFTLTISSLQAEDVAVYYCFQGSHVPFTFGSGTKLEIKR"
0.82,4.41 nM,–,–,"hGPN18-2_H2L3 VH L29A (antibody, V domains shown) VH: QVQLVQSGPGLVQPTQTLTLTCSFSGFSASTSVMGVGWIRQPSGKGLEWLADIWWDDDKDYNPSLKSRLTISKDTSKNQVVLTMTNMDTVDTATYYCARTYYSNYEYYGMDYWGQGTLVTVSS VL: DIVMTQSPDSLAVSLGERATINCRSSQTIILSNGNTYLEWYQQKPGQPPKLLIYKVSNRFSGVPDRFSGSGSGTDFTLTISSLQAEDVAVYYCFQGSHVPFTFGSGTKLEIKR"
0.84,3.92 nM,–,–,"hGPN18-2_H2L3 VH G26A (antibody, V domains shown) VH: QVQLVQSGPGLVQPTQTLTLTCSFSAFSLSTSVMGVGWIRQPSGKGLEWLADIWWDDDKDYNPSLKSRLTISKDTSKNQVVLTMTNMDTVDTATYYCARTYYSNYEYYGMDYWGQGTLVTVSS VL: DIVMTQSPDSLAVSLGERATINCRSSQTIILSNGNTYLEWYQQKPGQPPKLLIYKVSNRFSGVPDRFSGSGSGTDFTLTISSLQAEDVAVYYCFQGSHVPFTFGSGTKLEIKR"
0.91,3.58 nM,–,–,"hGPN18-2_H2L3 VH M34A (antibody, V domains shown) VH: QVQLVQSGPGLVQPTQTLTLTCSFSGFSLSTSVAGVGWIRQPSGKGLEWLADIWWDDDKDYNPSLKSRLTISKDTSKNQVVLTMTNMDTVDTATYYCARTYYSNYEYYGMDYWGQGTLVTVSS VL: DIVMTQSPDSLAVSLGERATINCRSSQTIILSNGNTYLEWYQQKPGQPPKLLIYKVSNRFSGVPDRFSGSGSGTDFTLTISSLQAEDVAVYYCFQGSHVPFTFGSGTKLEIKR"
0.87,3.32 nM,–,–,"hGPN18-2_H2L3 VH G37A (antibody, V domains shown) VH: QVQLVQSGPGLVQPTQTLTLTCSFSGFSLSTSVMGVAWIRQPSGKGLEWLADIWWDDDKDYNPSLKSRLTISKDTSKNQVVLTMTNMDTVDTATYYCARTYYSNYEYYGMDYWGQGTLVTVSS VL: DIVMTQSPDSLAVSLGERATINCRSSQTIILSNGNTYLEWYQQKPGQPPKLLIYKVSNRFSGVPDRFSGSGSGTDFTLTISSLQAEDVAVYYCFQGSHVPFTFGSGTKLEIKR"
0.78,4.42 nM,–,–,"hGPN18-2_H2L3 VH K59A (antibody, V domains shown) VH: QVQLVQSGPGLVQPTQTLTLTCSFSGFSLSTSVMGVGWIRQPSGKGLEWLADIWWDDDADYNPSLKSRLTISKDTSKNQVVLTMTNMDTVDTATYYCARTYYSNYEYYGMDYWGQGTLVTVSS VL: DIVMTQSPDSLAVSLGERATINCRSSQTIILSNGNTYLEWYQQKPGQPPKLLIYKVSNRFSGVPDRFSGSGSGTDFTLTISSLQAEDVAVYYCFQGSHVPFTFGSGTKLEIKR"
